Paper PMC5570134

Target: FUS RRM (UniProt P35637 267-373)
Assay: EMSA

Chain of FUS RRM (P35637 267-373): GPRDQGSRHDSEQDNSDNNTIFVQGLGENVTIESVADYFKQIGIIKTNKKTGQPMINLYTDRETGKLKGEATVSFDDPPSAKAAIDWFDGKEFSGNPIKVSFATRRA

Row | Binder | Kd
1 | GCUGCGGUGUGGAAGGAGUGGCUGGGUUGCGCAGG (structured_RNA) [Sc1] | 48 ± 3 µM
2 | AAAAAAAAAAAAAAAAAAAAAAAAAAAAAAAAAAAAAAAA (ssRNA) [Poly-A] | 45 ± 2 µM
